Experimental findings from paper PMC10630626 are described below.

In test [1] the target is Palivizumab. Kind of test: ELISA; competitive: Palivizumab coated, HRP-conjugated anti-idiotypic IgG (AbD23967/HCA262P, 0.2 μg/ml; 1 nM in the legend) co-incubated with 0.1-100 nM soluble AIP1-4^VHH, 1% BSA in PBS, room temperature. On the technique in general: ELISA stands for enzyme-linked immunosorbent assay.
Test [2] has as its target Palivizumab single-chain variable fragment, light-heavy order, fused to IgG1 Fc (P^scFvLHFc).
Test [3] concerns the target Palivizumab. The test is described as follows: SPR; Palivizumab (about 1000 RU) or P^scFvFc variants (about 500 RU) captured on a Protein A chip, AIP^VHH as analyte; Biacore X100, 25 °C, PBS pH 7.4 with 0.05% P20, 30 μl/min, 120 s injection, 500 s dissociation, 1:1 binding model. Background: SPR reads the build-up and loss of mass on a sensor chip optically.
Test [4] deals with Palivizumab single-chain variable fragment, light-heavy order, fused to IgG1 Fc (P^scFvLHFc). The test is described as above.
Test [5] has as its target Palivizumab single-chain variable fragment, heavy-light order, fused to IgG1 Fc (P^scFvHLFc). Described as above.
Test [6] addresses anti-idiotypic nanobody for Palivizumab 3 (AIP3^VHH), soluble.
The target in test [7] is anti-idiotypic nanobody for Palivizumab 2 (AIP2^VHH), soluble.
The target in test [8] is anti-idiotypic nanobody for Palivizumab 1 (AIP1^VHH), soluble.
For test [9] the target is unchanged. This is another data set of the same source.
In test [10] the target is anti-idiotypic nanobody for Palivizumab 3 (AIP3^VHH), soluble. This is another data set of the same source.
Test [11] shares this target. This is another data set of the same source.
Test [12] addresses anti-idiotypic nanobody for Palivizumab 1 (AIP1^VHH), soluble. This is another data set of the same source.
For test [13], the target named is anti-idiotypic nanobody for Palivizumab 2 (AIP2^VHH), soluble. This is another data set of the same source.

B1: anti-idiotypic nanobody for Palivizumab 2 (AIP2^VHH), soluble (VHH)
VHH: DVQLQESGGGLVQAGGSLRLSCAASESLFRLNAMGWYRQAPGKQRELVAGITTSGDAVYADSVKGRFTISRDSAKNTVYLQTNNLKPEDTAVYYCNVRPRAGTWENARIGVWGQGTQVTVSS
As for B1, in the test with Palivizumab [1], the IC50 (usually the concentration at which inhibition is half-maximal) is 4.4 nM. In test [2], this molecule yielded an IC50 of soluble AIP2^VHH (0.49-1000 nM) for proliferation of Ba/F3-gp130-AIP1^VHHgp130 cells induced by 2 nM P^scFvLHFc; blocks P^scFvLHFc with AIP1^VHHgp130 of 83.1 nM. In addition, the Kd – broadly, a measure of binding affinity in units of concentration – with Palivizumab [3] worked out at 2.16 nM.

B2: anti-idiotypic nanobody for Palivizumab 1 (AIP1^VHH), soluble (VHH)
VHH: DVQLQESGGGLVQAGGSLRLSCVASGLTFRYDMGWFRQAPGKEREFVAQITWRGGSATYYADSVKGRFTIARDIAKNAVYLQMNSLKPEDTAVYYCAAAYGSAGYRPDEYDSWGQGTQVTVSS
B2: in the test with Palivizumab [1], the IC50 turned out to be 1.76 nM. Further, in test [2], the IC50 of soluble AIP1^VHH (0.49-1000 nM) for proliferation of Ba/F3-gp130-AIP1^VHHgp130 cells induced by 2 nM P^scFvLHFc; blocks P^scFvLHFc with AIP1^VHHgp130 is 2.79 nM. Moreover, the Kd in test [4] is 9.8 pM; with Palivizumab [3], 0.026 nM; in test [5], 0.0272 nM. For the same molecule, the koff – broadly, the first-order rate constant of dissociation – with Palivizumab [3] came out at 5.9e-05 s⁻¹. Also, the kon (usually a measure of how fast the partners come together) with Palivizumab [3] came to 2.3e+06 M⁻¹ s⁻¹.

B3: anti-idiotypic nanobody for Palivizumab 4 (AIP4^VHH), soluble (VHH)
VHH: DVQLQESGGGLVQAGGSLRLSCVASGRAFSRYDMGWFRQAPGKEREFVAQISWRGGSATSYADTVKGRFTIARDNAKNTVYLQMNSLKPEDTAVYYCNARTPTLSSWGQGTQVTVSS
B3 gave a dissociation constant (Kd) in the test with Palivizumab [3] of 3.14 nM.

B4: Palivizumab (antibody, V domains shown)
VH: QVTLRESGPALVKPTQTLTLTCTFSGFSLSTSGMSVGWIRQPPGKALEWLADIWWDDKKDYNPSLKSRLTISKDTSKNQVVLKVTNMDPADTATYYCARSMITNWYFDVWGAGTTVTVSS
VL: DIQMTQSPSTLSASVGDRVTITCKCQLSVGYMHWYQQKPGKAPKLLIYDTSKLASGVPSRFSGSGSGTEFTLTISSLQPDDFATYYCFQGSGYPFTFGGGTKLEIK
As to B4, in test [6], the EC50 of proliferation of Ba/F3-gp130-AIP3^VHHgp130 cells, Palivizumab cross-linked with a 6-fold molar excess of hFc-mAb worked out at 2.71 nM and the proliferation of Ba/F3-gp130 cells expressing AIP3^VHHgp130, Palivizumab 0.033-66 nM, percent of the maximal proliferation with HIL-6 was found to be 20%. In test [7], this molecule registered an EC50 of proliferation of Ba/F3-gp130-AIP2^VHHgp130 cells, Palivizumab cross-linked with a 6-fold molar excess of hFc-mAb of 48.8 nM. In test [8], this molecule displayed an EC50 of proliferation of Ba/F3-gp130-AIP1^VHHgp130 cells, Palivizumab cross-linked with a 6-fold molar excess of hFc-mAb of 215 nM. In addition, in test [9], the IC50 of Palivizumab (0.49-1000 nM) for proliferation of Ba/F3-gp130-AIP1^VHHgp130 cells induced by 2 nM P^scFvLHFc; blocks P^scFvLHFc with AIP1^VHHgp130 stood at 8.28 nM and the molar excess of Palivizumab over P^scFvLHFc (2 nM) for complete suppression of STAT3 phosphorylation in Ba/F3-gp130-AIP1^VHHgp130 cells (fold molar excess) is greater than 8.

B5: Palivizumab single-chain variable fragment, light-heavy order, fused to IgG1 Fc (P^scFvLHFc) (Fc fusion)
VH: QVTLRESGPALVKPTQTLTLTCTFSGFSLSTSGMSVGWIRQPPGKALEWLADIWWDDKKDYNPSLKSRLTISKDTSKNQVVLKVTNMDPADTATYYCARSMITNWYFDVWGAGTTVTVSS
VL: DIQMTQSPSTLSASVGDRVTITCKCQLSVGYMHWYQQKPGKAPKLLIYDTSKLASGVPSRFSGSGSGTEFTLTISSLQPDDFATYYCFQGSGYPFTFGGGTKLEIK
Consider B5, for which the caspase 3/7 activity in Ba/F3-gp130-AIP3^VHHFas cells, dimeric P^scFvLHFc 0.1-100 nM, percent of the activity with cross-linked 2× P^scFvLHFc in [10] was less than 50%. The EC50 of proliferation of Ba/F3-gp130 cells expressing AIP3^VHHgp130, P^scFvLHFc 0.00053-93.5 nM (Fig. 6B) in test [11] came out at 6.61 nM. In test [12], this molecule came in with an EC50 of proliferation of Ba/F3-gp130-AIP1^VHHgp130 cells, P^scFvLHFc 0.00563-5.77 nM (Fig. 6H) of 0.38 nM; an EC50 of proliferation of Ba/F3-gp130 cells expressing AIP1^VHHgp130, P^scFvLHFc 0.00053-93.5 nM (Fig. 6B) of 0.21 nM; a lowest concentration that induced STAT3 phosphorylation in Ba/F3-gp130-AIP1^VHHgp130 cells (0.19 to 6 nM tested, Fig. 6I) of 1.5 nM.

B6: Palivizumab single-chain variable fragment, heavy-light order, fused to IgG1 Fc (P^scFvHLFc) (Fc fusion)
VH: QVTLRESGPALVKPTQTLTLTCTFSGFSLSTSGMSVGWIRQPPGKALEWLADIWWDDKKDYNPSLKSRLTISKDTSKNQVVLKVTNMDPADTATYYCARSMITNWYFDVWGAGTTVTVSS
VL: DIQMTQSPSTLSASVGDRVTITCKCQLSVGYMHWYQQKPGKAPKLLIYDTSKLASGVPSRFSGSGSGTEFTLTISSLQPDDFATYYCFQGSGYPFTFGGGTKLEIK
In turn, B6 showed an EC50 of proliferation of Ba/F3-gp130-AIP3^VHHgp130 cells, P^scFvHLFc 0.00056-100 nM (Fig. 6E) in test [11] of 9.1 nM. Further, in test [13], the EC50 of proliferation of Ba/F3-gp130-AIP2^VHHgp130 cells, P^scFvHLFc 0.00056-100 nM (Fig. 6E) came to 0.7 nM. In [12], the EC50 of proliferation of Ba/F3-gp130-AIP1^VHHgp130 cells, P^scFvHLFc 0.00056-100 nM (Fig. 6E) was 0.4 nM; the EC50 of proliferation of Ba/F3-gp130-AIP1^VHHgp130 cells, P^scFvHLFc 0.00563-5.77 nM (Fig. 6H) is 0.5 nM; the lowest concentration that induced STAT3 phosphorylation in Ba/F3-gp130-AIP1^VHHgp130 cells (0.19 to 6 nM tested, Fig. 6I) came out at 0.19 nM.

B7: anti-idiotypic nanobody for Palivizumab 3 (AIP3^VHH), soluble (VHH)
VHH: DVQLQESGGGLVQPGGSLRLSCVASGRTWSIYAMGWFRQAPGKEREFVTAISISRSESVTHYAESVTGRFTISRDNAKNTLHLQMNSLKPEDTAVYFCAADRRSIDPHHTIDYWGQGTQVTVSS
For B7, in the test with Palivizumab [1], the IC50 came out at 48.5 nM. The molecule also returned an IC50 of soluble AIP3^VHH (0.49-1000 nM) for proliferation of Ba/F3-gp130-AIP1^VHHgp130 cells induced by 2 nM P^scFvLHFc; blocks P^scFvLHFc with AIP1^VHHgp130 in [2] of 364 nM. Further, in the test with Palivizumab [3], the Kd stood at 1.11 nM.
